Consider four variants from FireProtDB (doi:10.1021/bi048926x).

Several values for one entry are separate records, joined by “and”; a condition that tells them apart may be missing. Equal values may be shown once.

The term Tm denotes the temperature at the midpoint of the melting transition.

B1: Azurin, P00282 (parent)
chain: MLRKLAAVSLLSLLSAPLLAAECSVDIQGNDQMQFNTNAITVDKSCKQFTVNLSHPGNLPKNVMGHNWVLSTAADMQGVVTDGMASGLDKDYLKPDDSRVIAHTKLIGSGEKDSVTFDVSKLKEGEQYMFFCTFPGHSALMKGTLTLK

In the data set the parent is B1. As to conditions: Pseudomonas aeruginosa (strain ATCC 15692 / DSM 22644 / CIP 104116 / JCM 14847 / LMG 12228 / 1C / PRS 101 / PAO1), pH 7, Thermal, reversible: No, structure 5AZU, whole UniProt chain shown.
Where [1] appears, read: DSC, Potassium phosphate 100 mM.

For the variant K44R, where the note is “Absorbance, Phosphate 10 mM”, the Tm was 76 °C and the “change of melting temperature, mutant - wild type (higher = more stable)” value (from here on “change of melting temperature, mutant”) is -2 °C. In addition, under setting [1], the “change of melting temperature, mutant” value was 0.8 °C and 0.6 °C and 1 °C; the “unfolding enthalpy (calorimetric)” value was 124 kcal/mol and 150 kcal/mol and 75.5 kcal/mol.
Regarding D43E K148R, under “Absorbance, Phosphate 10 mM”, the Tm came to 74 °C and the “change of melting temperature, mutant” value is -4 °C. Further, the “unfolding enthalpy (calorimetric)” value under setting [1] is 89.2 kcal/mol and 108 kcal/mol and 122 kcal/mol.
As to D82C K94C, under “Absorbance, Phosphate 10 mM”, the Tm came out at 78 °C and the “change of melting temperature, mutant” value turned out to be 0 °C.
On to D43E K148R K44R, for which, where the note is “Absorbance, Phosphate 10 mM”, the Tm amounted to 75 °C and the “change of melting temperature, mutant” value is -3 °C. In addition, under setting [1], the “change of melting temperature, mutant” value was -1.2 °C and -0.9 °C and -1.1 °C.
